Assays:
[1] = molecular target: AVR-PikE with non-cleavable C-terminal 6xHis tag (pOPINE) (Magnaporthe oryzae, UniProt C4B8B8 22-113); assay: SPR; details: both partners purified
[2] = molecular target: AVR-PikD with non-cleavable C-terminal 6xHis tag (pOPINE) (Magnaporthe oryzae, UniProt C4B8B8 22-113); assay: SPR; Biacore T200, 25°C, single-cycle kinetics; […]; 50 mM HEPES pH 7.5, 150 mM NaCl, 0.1% Tween 20; details: both partners purified

B1: Pikp-HMA domain (HMA integrated domain of the rice NLR Pikp-1) (domain or fragment)
chain: GLKQKIVIKVAMEGNNCRSKAMALVASTGGVDSVALVGDLRDKIEVVGYGIDPIKLISALRKKVGDAELLQVS
notes: also called Pikp1-HMA; Pikp-1 HMA; not shown: 6xHis+SUMO, N-terminal, cleaved
- Kd [1]: 367 ± 41 nM
- Kd [2]: 29 ± 3.5 nM

From paper PMC4547098 (eLife, 2015)
